Eleven molecules from US10155020B2, “Compositions and methods for treating hepatitis B” (The Regents of the University of Colorado, a body corporate, priority 2012, dated 2018) can be followed below.

For experiment [1], the system named is cytosolic Ca^2+ in PLM neurons. The experiment can be described thus: Cameleon FRET cytosolic calcium imaging in PLM neurons (bzIs17). Type of experiment: in vivo, C. elegans.
Text: Calcium imaging and analysis. A C. elegans strain with an integrated Pmec-4YC2.12 cameleon transgene (bzIs17) was used to quantify relative cytosolic calcium levels in PLM neurons by the FRET microscopy.
Calcium Imaging and Analysis in C. elegans. A C. elegans strain with an integrated Pmec-4YC2.12 cameleon transgene (bzIs17) was used to quantify relative cytosolic calcium levels in PLM neurons. Animals at the L1 larval stage were immobilized on a 2% agar pad in a solution containing 0.3 M 2,3-butanedione monoxime and 10 mM HEPES (pH 7.2). PLM neurons were visualized using an Axioplan 2 Nomarski Microscope (Zeiss) equipped with a SensiCam CCD camera (PCO Imaging Kelheim, Germany). […] The FRET ratio was calculated by (FRETPLM−FRETbkgnd)/(CFPPLM−CFPbkgnd), where FRETPLM and CFPPLM are the mean fluorescent intensities in the FRET and CFP channels of the PLM neuron and FRETbkgnd and CFPbkgnd are the mean fluorescent intensities in the FRET and CFP channels of a background region adjacent to the PLM neurons.
A C. elegans strain carrying an integrated transgene (bzIs17) that expresses a cameleon Ca^2+ sensor under the control of the mec-4 gene promoter was used to monitor intracellular Ca^2+ in six touch cells through the fluorescence-resonance energy transfer (FRET) assay.
Experiment [2] relates to PLM neurons. Kind of experiment: PLM touch cell killing by HBx in C. elegans. Type of experiment: in vivo.
Experimental: The presence of GFP-positive PLM neurons was scored using a Nomarski microscope. The data are shown in three categories: both PLM missing (black bars), one PLM missing (gray bars) and no PLM missing (white bars). The y axis represents percentage of each category. Percentage numbers under columns indicate the total PLM missing percentage in each experiment. More than 40 animals were scored in each experiment.
C. elegans strains and cell death assays. Animals were grown and maintained using standard protocols. Germline transformation was used to generate transgenic C. elegans strains expressing HBx and other genes. […] PLM killing by HBx was scored as described in Nat Struct Mol Biol., 2008, 15, 1094-1101.
Quantification of PLM Killings by HBx. PLM neurons were scored in L4 larvae in the presence of the integrated transgene, smIs98 or bzIs8, using a Nomarski microscope equipped with epifluorescence.
Chemical Treatment of C. elegans. Worms were treated with chemicals using an oil-base protocol. […] L4 larval stage hermaphrodite animals were placed onto standard NGM plates seeded with OP50. Oil solutions containing the chemicals were spread (0.8-1.0 ml) onto each plate so that the NGM surface was completely covered by oil. Worms lived at the interface of the NGM medium and the oil. F1 progeny was examined for PLM cell death or the FRET ratio in PLMs.
The test system of experiment [3] is HBV DNA replication. Kind of experiment: HBV DNA replication in pHBV-transfected HepG2 cells. It is filed as cell-based, hepatitis B virus. To be noted: cells transfected with mutant HBV genome HBx(G124L, I127A); 5 μM. How it is done:
Quantification of HBV DNA replication and HBcAg. Southern hybridization analysis and quantitative real-time PCR were used to quantify the amount of HBV replication DNA intermediates isolated from HepG2 cells or from mouse livers. The level of cytoplasmic HBcAg was measured by chemiluminescence using a commercial assay kit.
Southern Blot Analysis. HepG2 cells (3×10 cm plate per sample) transfected with the pHBV replicon (wild-type or mutant) were washed twice with cold phosphate-buffered saline (PBS) and lysed in 750 μl NET buffer (50 mM Tris-HCl pH 7.5, 1 mM EDTA, 100 mM NaCl, 0.5% Nonidet P-40) per 10 cm plate for 1 hour. HepG2 cell lysates were clarified by centrifugation at 12000 g for 30 minutes at 4° C. The supernatant was adjusted to 6 mM CaCl2 and treated with 100 μg/ml of Micrococcal nuclease for 30 minutes at 37° C. The reaction was stopped by addition of EDTA to a final concentration of 25 mM. […]
Quantitative Real-Time PCR Analysis. […] The pHBV plasmid was used as the standard for quantification and serial dilutions from 2×10^8 to 200 IU/ml were prepared. The primer sequences for quantitative PCR were chosen carefully from regions coding for HBV S antigen and Polymerase. […] PCR products were analyzed by fluorescence. […] The measured raw copy number from each reaction was calculated using the CT value of each PCR interpolated against the linear regression of the standard curve. […]

Experiment [4] concerns the target CED-9 (C. elegans) (UniProt P41958). The experiment can be described thus: isothermal titration calorimetry; peptaibol TK titrated into CED-9. (ITC needs no label: the signal is the heat of the interaction.)
Experiment [5] concerns the target CED-9 pre-incubated with peptaibol TK (C. elegans; Trichoderma pseudokoningii) (UniProt P41958). Kind of experiment: isothermal titration calorimetry; CED-9 pre-incubated with peptaibol TK, titrated with EGL-1.
Experiment [6] addresses T1, CED-9 (C. elegans, UniProt P41958 1-251).
T1 sequence (looked up): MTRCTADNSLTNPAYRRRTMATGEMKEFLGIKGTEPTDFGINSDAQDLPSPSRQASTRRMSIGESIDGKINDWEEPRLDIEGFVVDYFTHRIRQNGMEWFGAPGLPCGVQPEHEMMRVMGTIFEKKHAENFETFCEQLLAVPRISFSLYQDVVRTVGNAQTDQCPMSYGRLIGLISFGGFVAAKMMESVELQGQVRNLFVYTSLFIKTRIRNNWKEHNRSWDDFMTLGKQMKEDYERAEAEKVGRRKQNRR
The experiment can be described thus: isothermal titration calorimetry.

Experiment [7] deals with T2, CED-9 (Caenorhabditis elegans, UniProt P41958).
T2 sequence (P41958 1-280): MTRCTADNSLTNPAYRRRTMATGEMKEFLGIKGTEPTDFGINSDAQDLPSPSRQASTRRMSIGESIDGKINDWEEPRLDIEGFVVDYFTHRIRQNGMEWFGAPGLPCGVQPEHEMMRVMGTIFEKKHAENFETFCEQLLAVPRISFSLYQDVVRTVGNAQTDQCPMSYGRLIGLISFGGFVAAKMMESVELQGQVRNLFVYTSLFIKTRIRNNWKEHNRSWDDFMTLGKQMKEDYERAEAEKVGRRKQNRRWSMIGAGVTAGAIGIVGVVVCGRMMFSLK
The experiment can be described thus: Isothermal titration calorimetry (ITC), titration of CED-9. Type of experiment: binding, C. elegans. To be noted: no peptaibol TK.

The target in experiment [8] is Bcl-2 family proteins. Kind of experiment: cell-based or functional assay.
The target of experiment [9] is T3, Mcl-1 (human, UniProt Q07820 1-350).
T3 construct: also called anti-apoptotic Bcl-2 family member Mcl-1
T3 sequence (Q07820 whole entry): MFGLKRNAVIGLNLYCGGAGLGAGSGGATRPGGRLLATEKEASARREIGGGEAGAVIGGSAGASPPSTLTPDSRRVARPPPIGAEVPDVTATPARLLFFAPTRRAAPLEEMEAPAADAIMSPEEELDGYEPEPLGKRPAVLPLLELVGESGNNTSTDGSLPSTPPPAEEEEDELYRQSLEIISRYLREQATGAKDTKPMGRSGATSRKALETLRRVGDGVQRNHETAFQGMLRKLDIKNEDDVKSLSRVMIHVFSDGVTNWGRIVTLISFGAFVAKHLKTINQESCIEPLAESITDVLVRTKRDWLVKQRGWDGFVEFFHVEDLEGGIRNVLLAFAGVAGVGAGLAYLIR
The experiment can be described thus: co-immunoprecipitation with anti-Flag antibody from HepG2 cells, immunoblot. Background: A western blot detects proteins with antibodies after separation by electrophoresis.

For experiment [10], the target named is T4, His6-mBax(1-173) (mouse, UniProt Q07813 1-173).
T4 construct: range 1-173; also called mouse Bax(1-173)
T4 sequence (Q07813 other isoform, or with tags, fused parts or gaps limits assumed): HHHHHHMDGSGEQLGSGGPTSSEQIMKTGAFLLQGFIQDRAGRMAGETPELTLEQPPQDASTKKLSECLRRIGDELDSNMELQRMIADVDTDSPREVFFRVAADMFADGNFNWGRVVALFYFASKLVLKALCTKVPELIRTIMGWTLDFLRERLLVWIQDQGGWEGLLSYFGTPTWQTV
Kind of experiment: GST pull-down, immunoblot.

Experiment [11] addresses T5, CED-9(68-251; G169E)-His6 (C. elegans, UniProt P41958 68-251).
T5 construct: range 68-251; also called CED-9(G169E); mutant CED-9(G169E) protein
T5 sequence: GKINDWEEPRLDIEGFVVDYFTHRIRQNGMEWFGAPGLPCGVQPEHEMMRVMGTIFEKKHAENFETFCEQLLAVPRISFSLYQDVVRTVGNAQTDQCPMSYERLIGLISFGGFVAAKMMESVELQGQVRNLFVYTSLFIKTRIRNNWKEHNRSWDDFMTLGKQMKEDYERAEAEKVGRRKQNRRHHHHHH
The experiment can be described thus: GST pull-down, immunoblot.

In experiment [12] the target is T3, Mcl-1. Kind of experiment: co-immunoprecipitation with anti-HBx antibody from pHBV-transfected HepG2 cells, immunoblot.
The target in experiment [13] is T6, CED-9 (in C. elegans animals) (C. elegans, UniProt P41958 1-280).
T6 sequence: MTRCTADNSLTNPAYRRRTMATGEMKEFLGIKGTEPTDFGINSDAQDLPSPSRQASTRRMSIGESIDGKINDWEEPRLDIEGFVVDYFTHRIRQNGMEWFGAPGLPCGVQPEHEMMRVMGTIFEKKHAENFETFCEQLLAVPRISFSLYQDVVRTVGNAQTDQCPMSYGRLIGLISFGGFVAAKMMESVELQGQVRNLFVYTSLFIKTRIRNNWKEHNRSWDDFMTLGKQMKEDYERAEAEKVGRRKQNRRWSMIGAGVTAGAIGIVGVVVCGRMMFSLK
The experiment can be described thus: cell-based or functional assay.

The target of experiment [14] is T7, human Bcl-xL (human, UniProt Q07817 1-233).
T7 construct: also called endogenous Bcl-xL
T7 sequence (Q07817 whole entry): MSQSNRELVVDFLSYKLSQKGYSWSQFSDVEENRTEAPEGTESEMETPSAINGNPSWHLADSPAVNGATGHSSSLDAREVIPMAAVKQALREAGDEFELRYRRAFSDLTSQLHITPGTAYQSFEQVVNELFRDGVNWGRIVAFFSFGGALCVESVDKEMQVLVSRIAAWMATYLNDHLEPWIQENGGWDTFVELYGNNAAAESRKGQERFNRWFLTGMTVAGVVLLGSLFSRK
The experiment can be described thus: co-immunoprecipitation with anti-HBx antibody from pHBV-transfected HepG2 cells, immunoblot.

In experiment [15] the target is T7, human Bcl-xL. The experiment can be described thus: co-immunoprecipitation with anti-Flag antibody from HepG2 cells, immunoblot.

“And” between values parts separate entries of the source, which are not always exact repeats. Identical values can stand only once.

Turning to cyclosporin A [CsA], the “HBx-induced cytosolic Ca^2+ increase (FRET ratio)” value in experiment [1] (bzIs17, asp-3(tm4559), smIs451 animals) is reported as “completely suppressed”. Further, the “percentage of missing PLM” value in [2] (smIs98 animals that normally lost 50% of PLM neurons) amounted to 15%. Besides, the PLM death in experiment [2] (smIs98 animals with loss of ced-3) worked out at 4%.

Take `C[C@H](CCC(=O)O)C[C@H](C)C[C@H](C)C(=O)/C=C(\O)[C@H](C)C[C@H](C)C/C=C/[C@@H](C)[C@@H](O)[C@@H](C)[C@@H](O)C[C@@H]1CC[C@@](C)([C@H]2CC[C@@](C)([C@@H](C)O)O2)O1` [ionomycin]: the “HBV DNA replication” value in experiment [3] was “largely rescued”.

With `C/C=C(/C)C(=O)O[C@H]1C(C)=C2[C@H]([C@@H]1OC(=O)CCCCCCC)[C@@](C)(OC(C)=O)C[C@H](OC(=O)CCC)[C@@]1(O)[C@H]2OC(=O)[C@@]1(C)O` [thapsigargin], the “FRET ratio in PLM neurons” value in [1] (bzIs17 animals, vs untreated or vector-treated animals) is “significantly higher”.

The molecule peptaibol TK (peptide) came in with a Ka in [4] of 42600 M⁻¹.

B1: EGL-1 (other, C. elegans, UniProt O61667 16-106, looked up)
chain: MSNVFDVQSSVFYNEKNMFYSSSQDFSSCEDSSQFADDSGFFDDSEISSIGYEIGSKLAAMCDDFDAQMMSYSAHASDRSLFHRLLDFFAF
notes: also called BH3-only protein EGL-1
Take B1: in [5], the Ka worked out at 1.52e+08 M⁻¹; the fold of the binding affinity between CED-9 and EGL-1 without peptaibol TK turned out to be 38 fold. For the same molecule, the Ka in experiment [6] was 4.04e+06 M⁻¹. In [7], the “binding affinity of EGL-1 to CED-9” value is 4.04e+06 M⁻¹.

B2: HBx(G124L, I127A), P03165 1-154 (protein)
chain: MAARLCCQLDPARDVLCLRPVGAESRGRPFSGSLGTLSSPSPSAVPTDHGAHLSLRGLPVCAFSSAGPCALRFTSARRMETTVNAHQILPKVLHKRTLGLSAMSTTDLEAYFKDCLFKDWEELLEEARLKVFVLGGCRHKLVCAPAPCNFFTSA
Turning to B2, in [8], the reduction in HBV DNA replication against the wild-type HBV genome, Q-PCR of viral particles from HepG2 cells was 8 fold and 9 fold; the reduction of replicative DNA intermediates in mouse liver against the wild-type pHBV replicon, southern blot lay within 2 to 3 fold.

B3: Flag-HBx (other)
chain: MAARLCCQLDPARDVLCLRPVGAESRGRPFSGSLGTLSSPSPSAVPTDHGAHLSLRGLPVCAFSSAGPCALRFTSARRMETTVNAHQILPKVLHKRTLGLSAMSTTDLEAYFKDCLFKDWEELGEEIRLKVFVLGGCRHKLVCAPAPCNFFTSA
notes: also called pcDNA3.1-Flag-HBx
As to B3, the binding result in experiment [9] was “no binding”.

B4: GST-HBx (other)
chain: MAARLCCQLDPARDVLCLRPVGAESRGRPFSGSLGTLSSPSPSAVPTDHGAHLSLRGLPVCAFSSAGPCALRFTSARRMETTVNAHQILPKVLHKRTLGLSAMSTTDLEAYFKDCLFKDWEELGEEIRLKVFVLGGCRHKLVCAPAPCNFFTSA
notes: also called pGEX-4T-2-HBx
Take B4: the binding result in experiment [10] and in [11] was “no binding” throughout.

B5: HBV x protein (HBx) (other)
chain: MAARLCCQLDPARDVLCLRPVGAESRGRPFSGSLGTLSSPSPSAVPTDHGAHLSLRGLPVCAFSSAGPCALRFTSARRMETTVNAHQILPKVLHKRTLGLSAMSTTDLEAYFKDCLFKDWEELGEEIRLKVFVLGGCRHKLVCAPAPCNFFTSA
notes: also called hepatitis B virus X protein
As to B5, the binding result in [12] was “no binding”. In [13], the “FRET ratio of cameleon Ca2+ sensor in PLM neurons (cytosolic Ca2+)” value is 40%.

B6: HBx(G124L, I127A) (other)
chain: MAARLCCQLDPARDVLCLRPVGAESRGRPFSGSLGTLSSPSPSAVPTDHGAHLSLRGLPVCAFSSAGPCALRFTSARRMETTVNAHQILPKVLHKRTLGLSAMSTTDLEAYFKDCLFKDWEELLEEARLKVFVLGGCRHKLVCAPAPCNFFTSA
notes: also called mutant pHBV
For B6, the binding result in experiment [14] is “no binding”.

B7: Flag-HBx(G124L, I127A) (other)
chain: MAARLCCQLDPARDVLCLRPVGAESRGRPFSGSLGTLSSPSPSAVPTDHGAHLSLRGLPVCAFSSAGPCALRFTSARRMETTVNAHQILPKVLHKRTLGLSAMSTTDLEAYFKDCLFKDWEELLEEARLKVFVLGGCRHKLVCAPAPCNFFTSA
notes: also called pcDNA3.1-Flag-HBx(G124L, I127A)
As for B7, the binding result in experiment [15] is recorded as “no binding”.
